Results: patent US20250276082A1 (INNOLAKE BIOPHARMA HANGZHOU, published 2025)
Changes are numbered by the printed parent chain. Blank lines part the entries; values can stand above or below the binder they belong to.

Columns and labels:
B7H3-hFc = biological target: T1, B7H3-hFc (UniProt Q5ZPR3 29-466, limits assumed); assay: ELISA, B7H3-hFc coated plate, purified hybridoma antibody
T1 construct: Construct limits, linker and Fc not described; also called B7H3-hFc protein; not shown: human Fc (hFc)
T1 sequence (looked up): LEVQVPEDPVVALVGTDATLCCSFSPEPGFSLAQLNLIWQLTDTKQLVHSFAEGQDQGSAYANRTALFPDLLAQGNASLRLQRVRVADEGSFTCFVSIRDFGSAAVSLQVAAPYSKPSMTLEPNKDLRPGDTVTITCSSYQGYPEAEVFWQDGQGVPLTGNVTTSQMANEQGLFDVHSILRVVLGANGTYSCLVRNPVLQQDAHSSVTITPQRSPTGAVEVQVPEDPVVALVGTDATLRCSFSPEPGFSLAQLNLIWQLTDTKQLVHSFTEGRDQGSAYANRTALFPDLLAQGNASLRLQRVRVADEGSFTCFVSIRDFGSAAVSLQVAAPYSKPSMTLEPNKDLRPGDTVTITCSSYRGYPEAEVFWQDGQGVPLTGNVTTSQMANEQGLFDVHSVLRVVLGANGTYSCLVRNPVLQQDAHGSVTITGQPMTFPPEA
Protocol: (1) Screening of B7H3-binding positive clones through ELISA: 50 μL of B7H3-hFc (final concentration: 2 μg/mL) was used to coat each well of a 96-well ELISA plate (Corning, Cat. No.: 9018), and incubated overnight at room temperature. After the ELISA plate was rinsed with washing buffer (PBS+0.05% Tween20) 3 times, blocking buffer (PBS+2% BSA (Sigma, Cat. No.: V90093)) was added and the ELISA plate was incubated at room temperature for 1 hour. The ELISA plate was rinsed with washing buffer 3 times; and hybridoma supernatant was added, and the ELISA plate was incubated at room temperature for 1 hour and rinsed 3 times. 100 μL of 10,000-fold diluted HRP-conjugated goat anti-mouse IgG secondary antibody (Thermo, Cat. No.: 31432) was added to each well, and the ELISA plate was incubated at room temperature for 1 hour in the dark and rinsed 3 times. 100 μL of TMB (Biocytogen, Cat. No.: ES-002) was added to each well, and the ELISA plate was incubated at room temperature for color development for 2 minutes, 100 μL of reaction terminating solution (2N H2SO4) was added to each well to terminate the color reaction, and an OD450 value of each well was read using a microplate reader (Tecan Spark). (2) Screening of B7H3-binding positive clones through FACS: 50 μL of the positive hybridoma supernatant or purified hybridoma antibody in the foregoing test was mixed with 50 μL of 293T-B7H3 cells (2×10⁵ cells/well), and a resulting mixture was added to a 96-well plate with a U-shaped bottom and left standing at 4° C. for 1 hour, the 96-well plate was rinsed with FACS buffer (PBS+3% FCS) and centrifuged twice, then 400-fold diluted PE-labeled goat anti-mouse secondary antibody (Biolegend, Cat. No.: 405307) was added, the 96-well plate was incubated at 4° C. for 30 minutes in the dark, rinsed with FACS buffer and centrifuged twice, and signal values of the cells in a PE channel were detected by using BD Accuri C6 flow cytometer. (3) Subcloning: Positive multiclonal hybridoma cells identified by ELISA and FACS were subcloned using the limiting dilution method. The subclones were further detected and screened using ELISA and FACS to obtain positive hybridoma monoclonal clones.
ELISA and FACS were conducted to detect the binding ability of purified antibody samples to B7H3. Results are shown in FIG. 1(a-b), FIG. 2(a-b) and Table 1.

[1] = biological target: T2, B7H3 on the cell surface (PC9 cells; 293T-B7H3 cells) (UniProt Q5ZPR3 29-534, limits assumed); assay: FACS on cells carrying B7H3 (PC9 per FIG. 2; 293T-B7H3 per method)
T2 construct: whole, on cells; both carry B7H3 on the surface; also called Cell Surface B7H3; B7H3 protein in PC9 cells
T2 sequence (looked up): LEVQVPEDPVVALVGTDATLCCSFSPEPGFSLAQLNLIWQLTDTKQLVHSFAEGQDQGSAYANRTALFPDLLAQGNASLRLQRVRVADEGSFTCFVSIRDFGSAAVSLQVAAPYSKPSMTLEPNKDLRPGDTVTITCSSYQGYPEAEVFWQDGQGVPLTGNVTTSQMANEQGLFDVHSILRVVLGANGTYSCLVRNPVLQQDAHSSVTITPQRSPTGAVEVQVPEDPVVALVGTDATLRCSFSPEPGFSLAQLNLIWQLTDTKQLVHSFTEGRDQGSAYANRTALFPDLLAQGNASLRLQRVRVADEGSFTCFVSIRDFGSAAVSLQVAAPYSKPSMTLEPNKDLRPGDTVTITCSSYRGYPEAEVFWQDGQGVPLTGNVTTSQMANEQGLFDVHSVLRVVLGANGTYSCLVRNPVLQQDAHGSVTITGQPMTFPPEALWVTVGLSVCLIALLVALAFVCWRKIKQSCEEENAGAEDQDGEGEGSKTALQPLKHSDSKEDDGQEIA

EC50 (B7H3-hFc): 0.0091 µg/mL
EC50 [1]: 0.248 µg/mL
B1: 14B3 (antibody, mouse IgG1, V domains shown)
VH: QVQLQQSGPELVRPGVSVKISCKGSGYTFTDHAIHWVKQSHAKSLEWIGVINTYSGNTNFNQKLKGKATMTVDKSSSTAYMELARLTSEDSAIYYCARGAHSSGYPYWYFDVWGAGTTVTVSS
VL: QIVLSQSPAILSASAGEKVTMTCRASSSVSYMHWYQQKPGSSPKPWIYATSNLASGVPARFSGSGSGTSYSLTISRVEAEDAATYYCQQWSTNPFTFGSGTKLEMK
notes: Murine hybridoma antibody; also called B7H3 hybridoma monoclonal antibody 14B3

EC50 (B7H3-hFc): 0.00624 µg/mL
EC50 [1]: 0.186 µg/mL
B7: 2A9 (antibody, mouse IgG2b, V domains shown)
VH: EVQLQQSGPELVKPGASVKISCKTSGYTFTEYIMHWVKQSRGKSLEWIGGINPNSGGTTYNEKFKGKATLTVDKSASTAYMELRSLTSEDSAIYYCARRMPYWYFDVWGAGTTVTVSS
VL: QIVLTQSPAIMSASPGEKVTMTCSASSSVSYIHWYRQKSGTSPKRWVYDTSKLASGVPARFSGSGSGTSYSLTISSMEAEDAATYYCQQWVSNPLTFGAGTKLELK
notes: Murine hybridoma antibody; also called B7H3 hybridoma monoclonal antibody 2A9

EC50 [1]: 0.217 µg/mL
B8: 2F12 (antibody, mouse IgG1, V domains shown)
VH: EVQLQQSGPELVKSGASVNISCKTSGYTFTENTMHWVKLSHGKSLEWIGGINPNNGGTTYNQKFKGKATLTVDKSSSTAYMELRSLTSEDSAVYYCARRGRWPPDWYFDVWGAGTTVTVSS
VL: B7 VL with V29L, I32M, R36Q, V47I, V91S
notes: Murine hybridoma antibody; also called B7H3 hybridoma monoclonal antibody 2F12

EC50 (B7H3-hFc): 0.00576 µg/mL
EC50 [1]: 0.197 µg/mL
B11: 7F5 (antibody, mouse IgG1, V domains shown)
VH: EVQLQQSGAELVRPGALVKLSCKTSGFNIKAYYIHWVKQRPEQGLEWIGWIDPENGNTFYDPKFQGKASITADTSSNTAYLQLSSLTSEDAAVYYCTRSSTRLRPFDYWGQGTTLTVSS
VL: DIVMTQAAFSNPVTLGTSASISCRSSKSLLHSNGITYLYWYLQKSGQSPQLLIYQMSNLASGVPDRFSSSGSGTDFTLRISRVEAEDVGVYYCAQNLELYTFGGGTKLEIK
notes: Murine hybridoma antibody purified by protein A; also called B7H3 hybridoma monoclonal antibody 7F5

EC50 (B7H3-hFc): 0.0067 µg/mL
EC50 [1]: 0.234 µg/mL
B13: 2E10 (antibody, mouse IgG2a, V domains shown)
VH: EVQLQQSGPELVKPGASVKISCKTSGYTFTEYTMHWVKQSHGKNLEWIGGINTDNGGTTYSQKFKDKATLTVDRSSSTAYMVLRSLTSEDSAVYYCARSFNNYGPAWFAYWGQGALVTVSA
VL: DIVMTQSHKFMSTSIGDRVSITCKASQDVRSAVAWYQQRPGQSPKLLIYWASTRHTGVPARFTGSGSGTDYTLTINNVQSEDLAGYFCQQYSSYFTFGGGTKLEKK
notes: Murine hybridoma antibody; also called B7H3 hybridoma monoclonal antibody 2E10

More lines, now with the values behind:

B2: 7B7 (antibody, mouse IgG2b, V domains shown)
VH: EVKLVESGGGLVRPGGSLKLSCAASGFTFSSYAVSWVRQTPEKRLEWVASISGGGIYIYYPDSVKGRFTISRDNAKNNLYLQMNSLTPDDTALYYCARHGGAGYFDYWGQGTTLTVSS
VL: DSLMTQSPASLSASVGETVTITCRGSESVHSYLAWYQQKQGKSPQLLVYNAKTLQSGVPSRFSGSGSGTQFSLRINSLQPEDFGTYYCQQHYGSPPWTFGGGTILEIK
notes: Murine hybridoma antibody; also called B7H3 hybridoma monoclonal antibody 7B7
EC50 (B7H3-hFc): 0.0097 µg/mL
EC50 [1]: 0.179 µg/mL

B3: 9C8 (antibody, mouse IgG1, V domains shown)
VH: EVQLQQSGPELVKPGASVKISCKTSGYTFTEYTIHWVKQSHGKSLEWIGGINPNSGGTTYNLKFKGKATLTVDKSSSTVYMELRSLTSEDSAVYYCARKEGFFTTDYWGQGTTLTVSS
VL: QTVLTQSPAIMSASPGEKVTMTCSASSSLSYIHWYRQKSGTSPKRWIYDTSNLATGVPVRFSGSGSGTSYSLTISSMEAEDAATYYCQQWHYNPPTFGGGTKLEIK
notes: Murine hybridoma antibody; also called B7H3 hybridoma monoclonal antibody 9C8
EC50 (B7H3-hFc): 0.0104 µg/mL
EC50 [1]: 0.0861 µg/mL

B4: 7C9 (antibody, mouse IgG1, V domains shown)
VH: EVQLQQSGTELVRPGALVKLSCKASALNIKDFYMHWVKQRPERGLEWIGWIDPDNGNTIYDPKFQGKASITADISSSTAYLQLSSLTSEDTAVYYCARSSTRQRPFDYWGQGTTLTVSS
VL: DIVMTQSHKVMSTSVGDRVSITCKASQDVRTGVAWYQQKPGQSPKLLIYSAFYRYTGVPDRFTVSGSGADFTFTITSVQAEDLAVYYCQQYYSIPWTFGGGTKLEIK
notes: Murine hybridoma antibody; also called B7H3 hybridoma monoclonal antibody 7C9
EC50 (B7H3-hFc): 0.0099 µg/mL
EC50 [1]: 0.103 µg/mL

B5: 5B6 (antibody, mouse IgG1, V domains shown)
VH: QVQLQQSGAELARPGASVKMSCKTSGYTFITYTIHWVKQRPGQGLEWIGYINPTSDYANFNQKFKDKATLTADKSSRTAYMQLSSLTSEDSAVYYCARWGTTVFQFYFDYWGQGTTLTVSS
VL: QIVLSQSPAILSASPGEKVTMTCRASQSLSYINWYQLKPGSSPKPWIYATSSLQSGVPARFSGSASGTSYSLTISRVEAEDAATYFCQHWSSDPPTIGGGTKLEIK
notes: Murine hybridoma antibody; also called B7H3 hybridoma monoclonal antibody 5B6
EC50 (B7H3-hFc): 0.00493 µg/mL
EC50 [1]: 0.0713 µg/mL

B6: 13A2 (antibody, mouse IgG2b, V domains shown)
VH: EVQLQQSGPELVKPGASVKISCKTSGYTFTEYVMHWVKQRHGQSLEWIGGINPNTGGTTYNQKFEGKATLTVDKSSSSAYMEFRSLTSEDSAVYYCARRMPFGISAMDYWGQGTSVTVSS
VL: B7 VL with Y35F, R36Q, V47I, Y48S, D49E, E78G, Q88H, V91I, N93Y, L95P
notes: Murine hybridoma antibody; also called B7H3 hybridoma monoclonal antibody 13A2
EC50 (B7H3-hFc): 0.00052 µg/mL
EC50 [1]: 0.101 µg/mL

B9: 7E6 (antibody, mouse IgG1, V domains shown)
VH: QVQLQQSGPELVRPGVSVKISCKGSGYTFTDYAMHWVKQSHAKSLEWIGVINSYYGNTHYNQKFKGKATMTVDKSSSTAYMELARLTSEDSAIYYCARAGGYSYGSSYRPDRFAYWGQGTLVIVSA
VL: DIQMTQSPASQSASLGESVTITCLASQTIGTWLAWYQQKPGKSPQLLIYAATNLADGVPSRFSGSGSGTKFSFKISSLQAEDFVSYYCQQLYSTPYTFGGGTKLEIK
notes: Murine hybridoma antibody; also called B7H3 hybridoma monoclonal antibody 7E6
EC50 (B7H3-hFc): 0.00449 µg/mL
EC50 [1]: 0.0526 µg/mL

B10: 15A2 (antibody, mouse IgG1, V domains shown)
VH: QVQLQQSGPEVVKPGALVRISCKASGYTFTSYDINWVKQRPGQGLEWIGWIDPGDGSTKYNEKFKGKATLTADKSSSTAYMQFSSLTSENSAVYFCVRRGFDYWGQGTTLTVSS
VL: QILLTQSPAIMSASPGEKVTMTCRTSSSVSYLHWFQQKPGSSPKLWIHDTSNLASGFPARFSGSGSGTSYSLIISSMEAEDAATYYCHQRSSYPWTFGGGTKLEIK
notes: Murine hybridoma antibody; also called B7H3 hybridoma monoclonal antibody 15A2
EC50 (B7H3-hFc): 0.00151 µg/mL
EC50 [1]: 0.0062 µg/mL

B12: 2F7 (antibody, mouse IgG2b, V domains shown)
VH: QVQLQQPGAELVKPGASVKLSCKASGYTFTSYYIYWLKQRPGQGLEWIGGIKPSNGDTNFNAKFMNKATLTVDKSSSTAYMQLSSLTSEDSAIYYCTRFFYGSPYDFDVWGAGTTVTVSS
VL: NIVMTQSPKSMSMAVGERVTLTCKASENVDTHVSWYQQKPEQSPTLLMYGTSNRFTGVPDRFTGSGSATDFTLTISSVQAEDLADYHCGQSYRYPYTFGGGTKLEIK
notes: Murine hybridoma antibody; also called B7H3 hybridoma monoclonal antibody 2F7
EC50 (B7H3-hFc): 0.00278 µg/mL
EC50 [1]: 0.177 µg/mL
